Experimental data taken from paper doi:10.1101/2020.10.22.351346.

Experiments:
[1] = biological target: microtubules of pig brain tubulin, taxol-stabilised, surface-immobilised (pig) (UniProt P02550)
[2] = biological target: microtubules of pig brain tubulin, taxol-stabilised, surface-immobilised (pig) (UniProt P02550); test: TIRF fluorescence imaging of labelled MAP on surface-immobilised MTs

full-length human MAP7, sequence (Q14244 whole entry): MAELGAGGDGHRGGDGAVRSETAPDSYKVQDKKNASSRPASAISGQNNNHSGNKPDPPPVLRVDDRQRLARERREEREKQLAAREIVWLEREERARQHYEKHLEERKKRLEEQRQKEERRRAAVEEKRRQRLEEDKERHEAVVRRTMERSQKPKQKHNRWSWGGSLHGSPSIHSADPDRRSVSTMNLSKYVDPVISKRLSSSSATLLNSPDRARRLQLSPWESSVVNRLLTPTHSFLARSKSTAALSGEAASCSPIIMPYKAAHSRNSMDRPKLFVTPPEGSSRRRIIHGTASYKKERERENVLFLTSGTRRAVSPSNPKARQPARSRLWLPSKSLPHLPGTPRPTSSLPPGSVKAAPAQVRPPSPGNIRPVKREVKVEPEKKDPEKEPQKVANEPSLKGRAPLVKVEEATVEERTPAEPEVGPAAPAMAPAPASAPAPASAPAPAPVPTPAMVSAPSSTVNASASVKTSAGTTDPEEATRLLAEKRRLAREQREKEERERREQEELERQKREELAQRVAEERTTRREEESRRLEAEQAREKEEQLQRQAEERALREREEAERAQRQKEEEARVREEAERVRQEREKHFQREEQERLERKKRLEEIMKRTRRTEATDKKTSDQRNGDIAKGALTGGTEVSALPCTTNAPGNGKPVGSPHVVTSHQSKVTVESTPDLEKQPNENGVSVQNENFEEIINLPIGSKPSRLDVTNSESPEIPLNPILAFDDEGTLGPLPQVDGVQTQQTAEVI
Tau-MTBD (amino acids 242-367), sequence (P10636 559-684): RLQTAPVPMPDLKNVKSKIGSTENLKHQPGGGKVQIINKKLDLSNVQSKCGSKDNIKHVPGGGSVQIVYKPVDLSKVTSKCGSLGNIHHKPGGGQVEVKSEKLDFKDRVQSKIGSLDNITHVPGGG
MAP7-N (amino acids 1-316), sequence (Q14244 1-316): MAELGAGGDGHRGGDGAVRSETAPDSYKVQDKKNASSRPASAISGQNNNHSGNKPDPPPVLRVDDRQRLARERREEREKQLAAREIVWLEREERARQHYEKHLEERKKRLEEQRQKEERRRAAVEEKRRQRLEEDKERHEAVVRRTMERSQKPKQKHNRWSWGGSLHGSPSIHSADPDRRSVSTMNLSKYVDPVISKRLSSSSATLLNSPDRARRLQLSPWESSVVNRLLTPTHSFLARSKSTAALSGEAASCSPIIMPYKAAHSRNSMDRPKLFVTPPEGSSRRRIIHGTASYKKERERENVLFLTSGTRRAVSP

MAP7-N (amino acids 1-316) (from UniProt Q14244-1 1-316) (domain or fragment)
IC50 of the run frequency of K560 on MTs against the concentration of MAP7-N [1]: 17.6 nM

Tau-MTBD (amino acids 242-367) (from UniProt P10636-8 242-367) (domain or fragment)
fold lower affinity than FL tau [2]: 100 fold

full-length human MAP7 (from UniProt Q14244-1 1-749) (natural protein)
IC50 [2]: 270 nM
Kd [2]: 111 nM
